This is an account of results in publication PMC7613929 (Nature microbiology, 2022).

What is called stoichiometry N is a count of units in the complex or per binding partner.

“And” between values parts separate entries of the source, which are not always exact repeats. Identical values can stand only once. Ends that are not written are not given here.

Series [1] relates to FtsA cysteine mutant E. coli strains. Put plainly: In vivo cysteine cross-linking, Western blot. Type of series: cell-based, Escherichia coli. The following applies: Western blot against 3x HA-tag. As for the experimental part:
Strains were grown to exponential phase (OD600 = 0.2-0.4) in LB from overnight cultures, and 0.9375 OD units harvested using centrifugation at 4°C. Cells were kept on ice for the duration of the experiment, unless stated otherwise. Cells were washed in 500 μl PBS and resuspended in 50 μl PBS. 1.25 μl DMSO or cross-linker (dBBr: Dibromobimane, BMOE: Bismaleimidoethane, BMB: 1,4-bismaleimidobutane or BMH: Bismaleimidohexane) in DMSO (20 mM stock) were added. Samples were incubated for 10 min and quenched by adding 1 μl 2-ME (1.43 M stock in MPW). Cells were resuspended in 50 μl lysis buffer [1 mM EDTA (pH 7.4), 14.3 mM 2-ME, cOmplete EDTA-free Protease Inhibitor Cocktail (Roche), 0.25 U/μl Benzonase (Merck) and 0.5 U/μl ReadyLyse Lysozyme (Lucigen) in B-PER (ThermoFisher)]. Samples were incubated at RT for 5 min. 50 μl of 2x SDS sample loading buffer supplemented with 3 % v/v 2-ME were added. Samples were incubated at 95°C for 5 min, and the equivalent of 0.1875 OD units of cells was analysed by SDS-PAGE. Western blotting was performed using a Trans-Blot turbo (BioRad) with the corresponding Midi 0.2 μm PVDF transfer pack. Blots were run at 25 V and 2.5 A for 7 min. Membranes were blocked in PBS + 5 % milk for 30-40 min, washed in PBS and incubated with anti-HA-Peroxidase antibody (Roche 12013819001) (1/1000 in PBST + 5 % milk) at RT for 1-1.5h. Membranes were washed thoroughly with PBST, developed using the ECL Prime Western blotting detection kit (Amersham/Cytiva) and imaged on a Gel DocTM XR+ (Bio-Rad). Presented images were contrast-adjusted for display purposes.
Background: In western blotting, separated proteins are transferred to a membrane and probed.

The target in a further series is T1, FtsA (Escherichia coli, UniProt P0ABH0).
T1 construct: made in house; host or cells: E. coli C41(DE3)
In words: SPR, EcFtsN^1-32 truncations and mutations binding to immobilised FtsA. The following applies: SPR equilibrium response; peptide 1:2 dilution series from 20 μM; mean ± SEM (n ≥ 2 for each construct); asterisk: maximum response fixed during fitting, approximate values; ND: not determinable; read-out: SPR K^eqd. How it is done:
SPR was performed using a Biacore T200 using CM5-sensor chips (Cytiva). Reference control and analyte channels were equilibrated in binding buffer. […] After reference and buffer signal correction, sensogram data were fitted using Prism 8.0 (GraphPad). Equilibrium response (Req) data were fitted to a single-site interaction model to determine Kd: (1) Req=(CRmax/C+Kd)+B, where C is the analyte concentration and Rmax is the maximum response at saturation and B is the background resonance.
On the technique in general: Surface plasmon resonance follows binding to a sensor surface in real time, without labels.

Series [2] has as its target Vibrio maritimus FtsA residues 1-396 (VmFtsA^1-396) (Vibrio maritimus). In words: crystal structure; co-crystallisation of VmFtsA^1-396 at 3 mg/ml with 2 mM ATP and 0.353 mM VmFtsN^1-29; crystallisation at pH 8.5.
Series [3] addresses VmFtsN^1-29-C-Atto 495 (Vibrio maritimus). In words: fluorescence polarisation; C-terminally truncated FtsA titrated (1:2 dilution series) into 20 nM Atto 495-labelled FtsN peptide; binding buffer with 0.05 % v/v Tween-20, RT; two-step model. (In general: Polarisation of emitted light reports the rotation of a fluorescent probe.)
Series [4] concerns the target Vibrio maritimus FtsA residues 1-396 (VmFtsA^1-396) (Vibrio maritimus). In words: SPR; Biacore T200, FtsA immobilised on CM5 chip by amide coupling (2000-7800 RU), FtsN peptides injected 120 s in 1:2 dilution series; binding buffer (50 mM HEPES/KOH, 100 mM KAc, 5 mM MgAc2, pH 7.7); equilibrium response fitted to a single-site model.
Series [5] deals with the molecule itself. In words: cryo-EM with 2D classification; EcFtsA at 0.15 mg/ml with 1 mM ATP on lipid monolayer, without FtsN peptide.
The target in series [6] is T2, Vibrio maritimus FtsA residues 1-396 (VmFtsA^1-396) (Vibrio maritimus).
T2 chain: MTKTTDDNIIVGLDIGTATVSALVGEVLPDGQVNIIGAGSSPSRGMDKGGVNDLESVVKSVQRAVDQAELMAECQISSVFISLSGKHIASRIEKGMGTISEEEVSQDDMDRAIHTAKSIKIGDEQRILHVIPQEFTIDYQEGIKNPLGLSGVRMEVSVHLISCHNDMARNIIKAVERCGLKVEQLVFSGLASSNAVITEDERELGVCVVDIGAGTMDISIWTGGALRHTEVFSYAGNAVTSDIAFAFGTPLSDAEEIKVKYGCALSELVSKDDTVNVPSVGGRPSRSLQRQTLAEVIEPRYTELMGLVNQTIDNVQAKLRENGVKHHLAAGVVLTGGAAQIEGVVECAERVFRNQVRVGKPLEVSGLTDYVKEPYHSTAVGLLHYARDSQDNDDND
Put plainly: FP; two-step model, first transition (FtsN binding).

In series [7] the target is T2, Vibrio maritimus FtsA residues 1-396 …. In words: AUC; two-step model, first transition (FtsN binding).
Series [8] shares this target. In words: FP; two-step model, second transition (polymerisation).
Series [9] has the same target. In words: AUC; two-step model, second transition (polymerisation).
Series [10] deals with the molecule itself. In words: co-sedimentation; co-pelleting: truncated FtsA at 1 mg/ml (~23 μM) with half, 1-, 3-, 6- or 10-fold molar FtsN peptide in binding buffer, 20°C, 20,000x g for 10 min, SDS-PAGE of supernatant and pellet.
Setting [11] is: ftsA^3x HA, Q155C mutant, exponential phase cells in PBS on ice, 10 min.

As for `O=C1C=CC(=O)N1CCCCN1C(=O)C=CC1=O` [BMB, 1,4-bismaleimidobutane], in series [1] (setting [11]), the “Covalent FtsA dimer after in vivo cross-linking, in words” value (“Covalent FtsA dimer” for short) is recorded as “FtsA dimers can be detected”.

Take `O=C1C=CC(=O)N1CCCCCCN1C(=O)C=CC1=O` [BMH, bismaleimidohexane]: the “Covalent FtsA dimer” value in series [1] (setting [11]) was “FtsA dimers can be detected”. On to `O=C1C=CC(=O)N1CCN1C(=O)C=CC1=O` [BMOE, bismaleimidoethane], for which the “Covalent FtsA dimer” value in [1] (double cysteine mutants ftsA^3x HA, P98C, S118C and ftsA^3x HA, E199C, S252C) is “Signal for covalent FtsA dimers can be detected for both double cysteine mutants”; in series [1] (setting [11]) it was “but not with BMOE”.

As to `Cc1c(CBr)n2c(CBr)c(C)c(=O)n2c1=O` [dBBr, dibromobimane], in [1] (ftsA^3x HA, D123C mutant, exponential phase cells in PBS on ice, 10 min), the “Covalent FtsA dimer” value is “Signal for a FtsA dimer can be detected”.

As to “MAQRDYVRRSQPAPSAASASTSRKKQRNLPAV [EcFtsN^1-32, ΔRK2]”, the Kd on FtsA was roughly 166 µM.

As to “MAQRDYVRRSQPAPSRRKKSTSASAQRNLPAV [EcFtsN^1-32, ΔRK3]”, the Kd at FtsA is roughly 80.6 µM. As for “Vibrio maritimus FtsA residues 1-396 (VmFtsA^1-396) (domain or fragment)”, the stoichiometry N in series [2] worked out at 4. Further, the fold weaker for the first binding event than EcFtsA^1-405 with FtsN^(1-32-C-Atto 495) in [3] worked out at 4 fold. In [4], “Vibrio maritimus FtsN cytoplasmic peptide, residues 1-29 (VmFtsN^1-29)” displayed a fold weaker than the EcFtsA^1-405-EcFtsN^1-32 interaction of 3 fold.

B1: E. coli FtsA (EcFtsA), full length (natural protein, UniProt P0ABH0 1-420, looked up)
chain: MIKATDRKLVVGLEIGTAKVAALVGEVLPDGMVNIIGVGSCPSRGMDKGGVNDLESVVKCVQRAIDQAELMADCQISSVYLALSGKHISCQNEIGMVPISEEEVTQEDVENVVHTAKSVRVRDEHRVLHVIPQEYAIDYQEGIKNPVGLSGVRMQAKVHLITCHNDMAKNIVKAVERCGLKVDQLIFAGLASSYSVLTEDERELGVCVVDIGGGTMDIAVYTGGALRHTKVIPYAGNVVTSDIAYAFGTPPSDAEAIKVRHGCALGSIVGKDESVEVPSVGGRPPRSLQRQTLAEVIEPRYTELLNLVNEEILQLQEKLRQQGVKHHLAAGIVLTGGAAQIEGLAACAQRVFHTQVRIGAPLNITGLTDYAQEPYYSTAVGLLHYGKESHLNGEAEVEKRVTASVGSWIKRLNSWLRKEF
notes: FtsA, E. coli, full length; also called WT; source: E. coli C41(DE3), purified (HisTrap, chitin resin with intein cleavage, SEC); not shown: intein-CBD-12H, C-terminal, cleaved
Take B1: in series [5], the “stoichiometry N” value is 13 and 12.

B2: VmFtsN^1-29-C-Atto 495 (peptide)
chain: MANRDYVRRGKGTSRRPAKKKTSGKKPWRC
modifications: Atto 495 (maleimide) on the added C-terminal cysteine
Take B2: the Kd in series [6] worked out at 0.062 µM; in series [7], 0.018 µM; in series [8], 10 µM; in series [9], 55 µM.

B3: E. coli FtsA residues 1-405 (EcFtsA^1-405) (domain or fragment, UniProt P0ABH0 1-405, looked up)
chain: MIKATDRKLVVGLEIGTAKVAALVGEVLPDGMVNIIGVGSCPSRGMDKGGVNDLESVVKCVQRAIDQAELMADCQISSVYLALSGKHISCQNEIGMVPISEEEVTQEDVENVVHTAKSVRVRDEHRVLHVIPQEYAIDYQEGIKNPVGLSGVRMQAKVHLITCHNDMAKNIVKAVERCGLKVDQLIFAGLASSYSVLTEDERELGVCVVDIGGGTMDIAVYTGGALRHTKVIPYAGNVVTSDIAYAFGTPPSDAEAIKVRHGCALGSIVGKDESVEVPSVGGRPPRSLQRQTLAEVIEPRYTELLNLVNEEILQLQEKLRQQGVKHHLAAGIVLTGGAAQIEGLAACAQRVFHTQVRIGAPLNITGLTDYAQEPYYSTAVGLLHYGKESHLNGEAEVEKRVTASV
notes: also called C-terminally truncated FtsA; source: E. coli C41(DE3), purified (HisTrap, SUMO cleavage with GST-SENP1, SEC); not shown: 6H-SUMO, N-terminal, cleaved
Consider B3, for which the binding result in series [10] was “binds”.
